Measured values reported in paper PMC9769622, “ATPase Activity of Bacillus subtilis RecA Affects the Dynamic Formation of RecA Filaments at DNA Double Strand Breaks” (mSphere, 2022).
One block for each molecule: values may come before it.

Experiments:
RecA (RecAWT) = molecular target: T1, RecA (RecAWT) (Bacillus subtilis, UniProt P16971); test: malachite green phosphate release; kinetic analysis of ATP binding; assay type: biochemical; details: with salmon sperm ssDNA, Mg2+, pH 7.4, 37 C
T1 construct: 6xHis tag kept (text says C-terminal, also written 6xHis-RecA); pET28a, E. coli BL21(DE3); about 38 kDa monomer
T1 sequence (P16971 11-348): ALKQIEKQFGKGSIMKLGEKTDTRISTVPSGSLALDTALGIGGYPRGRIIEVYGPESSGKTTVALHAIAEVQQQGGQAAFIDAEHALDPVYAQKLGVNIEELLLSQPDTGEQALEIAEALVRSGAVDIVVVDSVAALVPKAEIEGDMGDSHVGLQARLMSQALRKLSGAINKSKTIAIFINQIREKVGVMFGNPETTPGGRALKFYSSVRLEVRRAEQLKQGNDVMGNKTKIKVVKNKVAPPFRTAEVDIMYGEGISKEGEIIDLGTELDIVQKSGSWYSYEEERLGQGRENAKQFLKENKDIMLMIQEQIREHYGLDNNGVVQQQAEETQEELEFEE

[1] = molecular target: Bacillus subtilis RecA K70A Walker A mutant, hexa-histidine fusion protein (B. subtilis) (UniProt P16971); test: mass photometry; protein alone; 2 uL sample added to 18 uL PBS pH 7.4, room temperature; 137 mM salt; poly-L-lysine coated coverslips
[2] = molecular target: Bacillus subtilis RecA K70R Walker A mutant, hexa-histidine fusion protein (B. subtilis) (UniProt P16971); test: mass photometry; protein mixed with 32 nt ssDNA oligonucleotides and 1 mmol/l ATP, incubated 10 min at 37°C; measured in PBS pH 7.4
[3] = molecular target: Bacillus subtilis RecA K70R Walker A mutant, hexa-histidine fusion protein (B. subtilis) (UniProt P16971); test: mass photometry; protein alone; 2 uL sample added to 18 uL PBS pH 7.4, room temperature; 137 mM salt; poly-L-lysine coated coverslips
[4] = molecular target: Bacillus subtilis RecA, wild type, hexa-histidine fusion protein (B. subtilis) (UniProt P16971); test: as above

Molecule: Nc1ncnc2c1ncn2[C@@H]1O[C@H](COP(=O)(O)OP(=O)(O)OP(=O)(O)O)[C@@H](O)[C@H]1O [ATP]
malachite green phosphate release; kinetic analysis of ATP binding (RecA (RecAWT)): activity of wild type RecA comparable to that of E. coli RecA

stoichiometry N [1]: 2
Molecule: Bacillus subtilis RecA K70A Walker A mutant, hexa-histidine fusion protein (from UniProt P16971 11-348) (natural protein)

stoichiometry N [2]: 2 | stoichiometry N [3]: 2
Molecule: Bacillus subtilis RecA K70R Walker A mutant, hexa-histidine fusion protein (from UniProt P16971 11-348) (natural protein)

stoichiometry N [4]: 2
Molecule: Bacillus subtilis RecA, wild type, hexa-histidine fusion protein (from UniProt P16971 11-348) (natural protein)
